We go through four compounds from patent publication US20040235002A1, “Multiplex screening assays” (Sangamo BioSciences, Inc., priority 2002, published 2004).

For one data set, the system named is ERα and ERβ. Particulars: Barkham et al. (1998) Molecular Pharmacology, 54:105-112; cited from earlier work.
In data set [1] the test system is ZFP757-ERalpha LBD (synthetic/human). Put plainly: cell_activity. Particulars: AnxA8 mRNA, 100 nM 17beta-estradiol vs untreated, HEK293.
Data set [2] relates to ZFP734-FXR LBD (synthetic/human). Description: cell_activity. Particulars: Kip2 mRNA, 100 nM CDCA vs untreated, HEK293.
In data set [3] the test system is ZFP1727-TRbeta LBD (synthetic/human). Description: cell_activity. Particulars: GRP mRNA, 100 nM T3, HEK293.

In the case of `C[C@]12CC[C@@H]3c4ccc(O)cc4CC[C@H]3[C@@H]1CC[C@H]2O` [17alpha-estradiol], the “activation of ERα and ERβ as known from the literature” value with ERα and ERβ is on record as “preferentially activates ERα”.

For the compound “CGGGCGGCTG (double strand) [anxA8 site (ZFP757)]”, the activity in data set [1] amounted to 12 fold.

“GGGGCTGGGT (double strand) [kip2 site (ZFP734)]”: in data set [2], the activity was determined as 3.5 fold.

As to “GGTGGGGAGG (double strand) [GRP site (ZFP1727)]”, the activity in data set [3] turned out to be 14 fold.
